Measurements published in the Human Domainome abundance scans (Beltran et al. 2025).
± gives the uncertainty stated by the source.

B1: CD2-associated protein, residues 1 to 59; numbered along this chain, Q9Y5K6 (parent)
chain: MVDYIVEYDYDAVHDDELTIRVGEIIRNVKKLQEEGWLEGELNGRRGMFPDNFVKEIKR

Variants of: B1
Assay: abundance fitness (aPCA) (normalised: wild type 0, dead -1); higher = more abundant; growth selection in yeast, the domain comes from the species named
Settings: Homo sapiens

Abundance fitness, by site and new letter:
E35: Y -0.215 ± 0.15; C -0.156 ± 0.093; A -0.067 ± 0.058; W -0.399 ± 0.11; D -0.032 ± 0.084; L -0.205 ± 0.062; T -0.177 ± 0.067; H -0.068 ± 0.14; S -0.082 ± 0.068; N 0.054 ± 0.11; K 0.027 ± 0.11; G -0.071 ± 0.061; M -0.189 ± 0.11; F -0.158 ± 0.15; V -0.049 ± 0.066; P 0.051 ± 0.099; I -0.062 ± 0.095; Q -0.07 ± 0.092; R -0.016 ± 0.062
R45: A -0.27 ± 0.14; N -0.16 ± 0.14; F -0.248 ± 0.19; M -0.274 ± 0.14; K -0.075 ± 0.23; H 0.232 ± 0.2; Y -0.359 ± 0.24; Q -0.009 ± 0.13; G -0.7 ± 0.31; V -0.275 ± 0.13; C 0.033 ± 0.26; I -0.191 ± 0.12; S -0.07 ± 0.079; L -0.224 ± 0.11
F53: Q -0.317 ± 0.12; Y -0.131 ± 0.13; A 0.052 ± 0.073; S 0.035 ± 0.071; I -0.119 ± 0.14; D -0.433 ± 0.14; R 0.001 ± 0.084; N -0.053 ± 0.072; T 0.205 ± 0.098; P -0.249 ± 0.11; V 0.023 ± 0.083; G -0.145 ± 0.089; H 0.111 ± 0.11; L 0.056 ± 0.086; C 0.122 ± 0.083; E -0.155 ± 0.21; W -0.026 ± 0.35; M -0.047 ± 0.28
V54: H -0.484 ± 0.43; R -0.557 ± 0.19; T -0.209 ± 0.3; P -0.604 ± 0.32; G -0.075 ± 0.091; A -0.258 ± 0.21; S -0.358 ± 0.16
K55: D -0.755 ± 0.33; H -0.301 ± 0.27; N -0.272 ± 0.17; P -0.507 ± 0.37; Q 0.032 ± 0.11; F -0.961 ± 0.42; R 0.009 ± 0.072; I -0.177 ± 0.12; Y -0.294 ± 0.23; E -0.489 ± 0.3; M -0.218 ± 0.14; W -0.771 ± 0.32; C -0.027 ± 0.15; S -0.07 ± 0.079; G -0.216 ± 0.1; L -0.303 ± 0.094
L42: W -0.399 ± 0.16; T -0.515 ± 0.18; I 0.043 ± 0.22; Q -0.328 ± 0.19; S -0.267 ± 0.1; Y -0.839 ± 0.43; F -0.212 ± 0.12; V -0.146 ± 0.14; A -0.327 ± 0.15; M -0.678 ± 0.21; H -0.297 ± 0.15; C -0.012 ± 0.13
G36: L -0.978 ± 0.18; P -0.143 ± 0.17; D -0.551 ± 0.1; R -0.195 ± 0.1; H -0.231 ± 0.1; N -0.174 ± 0.12; I -0.632 ± 0.13; Y -0.614 ± 0.15; Q -0.467 ± 0.3; C -0.403 ± 0.11; T -0.618 ± 0.13; M -0.433 ± 0.16; V -0.745 ± 0.13; F -0.622 ± 0.15; S -0.352 ± 0.08; E -0.659 ± 0.38
Q33: F -0.182 ± 0.06; W -0.474 ± 0.28; I -0.36 ± 0.089; Y -0.242 ± 0.081; L -0.351 ± 0.068; K -0.07 ± 0.12; C -0.192 ± 0.099; N 0.102 ± 0.073; D 0.065 ± 0.073; R -0.084 ± 0.083; M -0.238 ± 0.23; A -0.071 ± 0.089; T 0.006 ± 0.083; S 0.03 ± 0.069; V -0.317 ± 0.078; H -0.119 ± 0.091; E -0.014 ± 0.18; G 0.015 ± 0.13
L32: D -0.223 ± 0.14; S -0.011 ± 0.078; E -0.088 ± 0.27; V 0.074 ± 0.24; N -0.078 ± 0.16; C 0.003 ± 0.11; Y -0.206 ± 0.18; K 0.01 ± 0.15; G -0.013 ± 0.079; P -0.152 ± 0.13; F 0.016 ± 0.19; I -0.238 ± 0.15; H -0.001 ± 0.12; M -0.159 ± 0.24; A 0.118 ± 0.092; T -0.302 ± 0.21
G40: L -0.945 ± 0.24; K -0.541 ± 0.18; M -0.661 ± 0.31; D -0.825 ± 0.36; V -0.904 ± 0.43; R -0.858 ± 0.23; A -0.999 ± 0.4; S -0.463 ± 0.12; E -0.926 ± 0.41
N52: S 0.107 ± 0.08; F 0.073 ± 0.13; K 0.071 ± 0.096; T -0.05 ± 0.11; E -0.263 ± 0.34; P -0.065 ± 0.08; R 0.028 ± 0.094; I -0.141 ± 0.18; M -0.155 ± 0.11; D -0.236 ± 0.23; Q -0.127 ± 0.13; L -0.03 ± 0.078; Y -0.203 ± 0.19; C -0.041 ± 0.17; V 0.061 ± 0.17; H -0.284 ± 0.13; G -0.128 ± 0.17; A -0.091 ± 0.22
W37: V -0.253 ± 0.093; S -0.277 ± 0.12; L -0.273 ± 0.075; Q -0.32 ± 0.12; I -0.451 ± 0.18; T -0.359 ± 0.14; M -0.219 ± 0.15; R -0.298 ± 0.14; G -0.779 ± 0.25; K -0.469 ± 0.35; Y -0.02 ± 0.28
L38: Y -0.27 ± 0.086; C -0.193 ± 0.11; P -1.07 ± 0.33; D -0.721 ± 0.38; E -0.867 ± 0.42; V -0.525 ± 0.12; N -0.558 ± 0.16; T -0.548 ± 0.13; G -0.996 ± 0.28; F -0.105 ± 0.091; S 0.003 ± 0.074; A -0.25 ± 0.1; R -0.563 ± 0.13; M 0.049 ± 0.19; H -0.662 ± 0.17; K -0.264 ± 0.23; I -0.433 ± 0.11
D51: P -0.092 ± 0.083; M -0.136 ± 0.41; A 0.04 ± 0.059; N 0.191 ± 0.3; W -0.425 ± 0.41; S -0.055 ± 0.057; G -0.047 ± 0.076; C -0.195 ± 0.45; H -0.032 ± 0.099; E 0.032 ± 0.2; L -0.017 ± 0.067; V -0.066 ± 0.091; T 0.018 ± 0.071; R -0.019 ± 0.064; I 0.092 ± 0.11; Y -0.125 ± 0.088
P50: G -0.322 ± 0.12; K -0.184 ± 0.28; N -0.261 ± 0.23; L -0.412 ± 0.11; H -0.149 ± 0.17; S -0.329 ± 0.11; F -0.589 ± 0.16; R 0.115 ± 0.15; T -0.746 ± 0.24; V -0.996 ± 0.28; A -0.502 ± 0.16; I -0.843 ± 0.29; E -0.968 ± 0.4
M48: G -0.33 ± 0.11; S 0.048 ± 0.083; C -0.012 ± 0.18; F -0.175 ± 0.13; L -0.065 ± 0.079; N 0.047 ± 0.17; T 0.035 ± 0.094; I 0.115 ± 0.17; R 0.071 ± 0.062; A 0.045 ± 0.086; Q -0.015 ± 0.082; W -0.126 ± 0.11; K 0.093 ± 0.097; P -0.524 ± 0.22; D -0.573 ± 0.23; Y -0.063 ± 0.16; V -0.053 ± 0.069; H -0.257 ± 0.11
E39: Y -0.164 ± 0.15; C 0 ± 0.21; I -0.142 ± 0.17; H -0.202 ± 0.14; V -0.201 ± 0.11; S -0.057 ± 0.087; D -0.541 ± 0.16; F -0.432 ± 0.19; M -0.256 ± 0.13; Q -0.248 ± 0.2; N -0.446 ± 0.21; L -0.427 ± 0.1; R -0.486 ± 0.093; T -0.26 ± 0.1; K -0.302 ± 0.32; A -0.146 ± 0.12
N43: E -0.192 ± 0.45; T -0.62 ± 0.12; Q -0.287 ± 0.12; P -0.653 ± 0.2; Y -0.072 ± 0.11; L -0.323 ± 0.06; H 0.145 ± 0.15; K -0.149 ± 0.12; W -0.562 ± 0.26; F -0.409 ± 0.15; S -0.221 ± 0.051; M -0.395 ± 0.15; G -0.057 ± 0.15; V -0.694 ± 0.18; R -0.082 ± 0.089; C -0.383 ± 0.11
E34: L 0.004 ± 0.072; G -0.034 ± 0.072; Y -0.089 ± 0.3; M 0.05 ± 0.099; N 0.009 ± 0.16; P -0.152 ± 0.19; Q -0.241 ± 0.36; C 0.094 ± 0.21; D -0.148 ± 0.15; H 0.173 ± 0.18; V -0.006 ± 0.091; T -0.028 ± 0.14; A -0.048 ± 0.13; W -0.057 ± 0.098; R 0.018 ± 0.077; I 0.074 ± 0.24; K 0.075 ± 0.15
G44: R -0.133 ± 0.32; L -0.547 ± 0.36; S -0.592 ± 0.22; H -0.549 ± 0.3; V -0.843 ± 0.31
K31: Y -0.159 ± 0.44
E56: P 0.06 ± 0.19; C -0.044 ± 0.4; I -0.286 ± 0.44; M -0.152 ± 0.21; R -0.137 ± 0.089; L -0.18 ± 0.1; Q -0.217 ± 0.25; K 0.024 ± 0.28; A -0.002 ± 0.12; S -0.256 ± 0.11
R46: E -0.445 ± 0.26; T -0.082 ± 0.13; W -0.434 ± 0.16; C -0.363 ± 0.2; F -0.346 ± 0.2; S -0.402 ± 0.13; Q -0.301 ± 0.21; K -0.181 ± 0.17; L -0.245 ± 0.12; M -0.066 ± 0.2; I -0.243 ± 0.37
E41: R -0.306 ± 0.09; D -0.349 ± 0.27; Y -0.532 ± 0.28; N -0.361 ± 0.49; A -0.388 ± 0.33; I -0.191 ± 0.25; V -0.535 ± 0.22; Q -0.352 ± 0.18; S -0.013 ± 0.11; M -0.312 ± 0.2; W -0.31 ± 0.14
F49: I -0.195 ± 0.15; S -0.695 ± 0.15; P -0.877 ± 0.3; Q -0.857 ± 0.43; A -0.539 ± 0.26; L -0.251 ± 0.09; V -0.056 ± 0.17; K -0.826 ± 0.43; M -0.38 ± 0.12
